# Measured values from patent US20240239915A1 (Zymeworks, published 2024).
# Changes are numbered by the printed parent chain. In names and notes the source's numbering stands. Where two headings read alike, the source gives them in different places.
# B1: LALA variant of the anti-LPS antibody O11-1111 (IgG1) (antibody)
# heavy: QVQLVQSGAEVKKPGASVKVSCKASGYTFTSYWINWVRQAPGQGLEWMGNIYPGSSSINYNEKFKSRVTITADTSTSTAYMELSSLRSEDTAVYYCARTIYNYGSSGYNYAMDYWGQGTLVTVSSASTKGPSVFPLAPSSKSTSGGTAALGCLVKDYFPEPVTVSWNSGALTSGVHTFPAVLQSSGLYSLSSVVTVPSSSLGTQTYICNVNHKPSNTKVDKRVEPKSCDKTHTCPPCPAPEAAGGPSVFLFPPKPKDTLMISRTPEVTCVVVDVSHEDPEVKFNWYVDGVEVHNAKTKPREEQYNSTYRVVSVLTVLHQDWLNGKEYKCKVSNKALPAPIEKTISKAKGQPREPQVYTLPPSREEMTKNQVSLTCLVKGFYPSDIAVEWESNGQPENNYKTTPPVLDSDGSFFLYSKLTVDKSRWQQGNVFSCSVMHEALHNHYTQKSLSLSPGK
# light: DIVMTQSPDSLAVSLGERATINCKASENVGNSVSWYQQKPGQPPKLLIYGASNRYTGVPDRFSGSGSGTDFTLTISSLQAEDVAVYYCGQSYSYPYTFGQGTKVEIKRTVAAPSVFIFPPSDEQLKSGTASVVCLLNNFYPREAKVQWKVDNALQSGNSQESVTEQDSKDSTYSLSSTLTLSKADYEKHKVYACEVTHQGLSSPVTKSFNRGEC
# notes: LALA substitutions in EU numbering; also called Anti-LPS Antibody LALA
# B2: L234A/L235A/D265G/P329A (LALA-DGPA) variant of IgG1 WT of the anti-EGFR antibody panitumumab (antibody)
# heavy: QVQLQESGPGLVKPSETLSLTCTVSGGSVSSGDYYWTWIRQSPGKGLEWIGHIYYSGNTNYNPSLKSRLTISIDTSKTQFSLKLSSVTAADTAIYYCVRDRVTGAFDIWGQGTMVTVSSASTKGPSVFPLAPSSKSTSGGTAALGCLVKDYFPEPVTVSWNSGALTSGVHTFPAVLQSSGLYSLSSVVTVPSSSLGTQTYICNVNHKPSNTKVDKRVEPKSCDKTHTCPPCPAPEAAGGPSVFLFPPKPKDTLMISRTPEVTCVVVGVSHEDPEVKFNWYVDGVEVHNAKTKPREEQYNSTYRVVSVLTVLHQDWLNGKEYKCKVSNKALAAPIEKTISKAKGQPREPQVYTLPPSREEMTKNQVSLTCLVKGFYPSDIAVEWESNGQPENNYKTTPPVLDSDGSFFLYSKLTVDKSRWQQGNVFSCSVMHEALHNHYTQKSLSLSPGK
# light: not shown
# notes: Positions are EU numbers
# B3: L234A/L235A/D265T (LALA-DT) variant of IgG1 WT of the anti-EGFR antibody panitumumab (antibody)
# heavy: B2 heavy with G267T, A331P
# light: not shown
# notes: Mutations in both CH2 domains; positions are EU numbers
# B4: L234A/L235A/D265Q (LALA-DQ) variant of IgG1 WT of the anti-EGFR antibody panitumumab (antibody)
# heavy: B2 heavy with G267Q, A331P
# light: not shown
# notes: as for B3
# B5: L234A/L235A/P329G (LALA-PG) variant of IgG1 WT of the anti-EGFR antibody panitumumab (antibody)
# heavy: B2 heavy with G267D, A331G
# light: not shown
# notes: as for B3
# B6: L234A/L235A/D265N (LALA-DN) variant of IgG1 WT of the anti-EGFR antibody panitumumab (antibody)
# heavy: B2 heavy with G267N, A331P
# light: not shown
# notes: as for B3
# Tests used:
# [1] = biological target: T1, Recombinant Human Fc gamma RIIIB/CD16b Protein (R&D Systems), His-tagged (human, UniProt O75015 20-208); test: SPR (Biacore T200); receptor immobilized directly on CM5 chip, antibody as analyte at 4.7 µM
# T1 construct: also called human FcγRIIIb; hFcγRIIIb
# T1 chain: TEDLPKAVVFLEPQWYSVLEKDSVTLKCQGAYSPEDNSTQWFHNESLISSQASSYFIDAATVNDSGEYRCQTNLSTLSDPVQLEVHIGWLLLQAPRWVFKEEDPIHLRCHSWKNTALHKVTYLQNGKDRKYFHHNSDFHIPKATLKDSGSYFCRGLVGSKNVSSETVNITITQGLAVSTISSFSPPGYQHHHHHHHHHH
# [2] = biological target: T2, human FcRn (human neonatal Fc receptor large subunit p51 and beta2-microglobulin), biotinylated (human, UniProt P55899 24-297; P61769 21-119, biotinylated (site not stated)); test: BLI (Octet RED384), biotinylated FcRn on streptavidin biosensor, binding and dissociation at pH 6.0
# [3] = biological target: T2, human FcRn (human neonatal Fc receptor …); test: BLI (Octet RED384), biotinylated FcRn on streptavidin biosensor, binding at pH 6.0, dissociation at pH 7.4
# [4] = biological target: T3, Recombinant Cynomolgus Fc gamma RIII/CD16 Protein (R&D Systems), His-tagged (cynomolgus, UniProt Q8SPW2 17-208); test: SPR (Biacore T200); receptor immobilized directly on CM5 chip, antibody as analyte at 4.7 µM
# T3 construct: also called cynomolgus FcγRIII; cFcγRIII
# T3 chain: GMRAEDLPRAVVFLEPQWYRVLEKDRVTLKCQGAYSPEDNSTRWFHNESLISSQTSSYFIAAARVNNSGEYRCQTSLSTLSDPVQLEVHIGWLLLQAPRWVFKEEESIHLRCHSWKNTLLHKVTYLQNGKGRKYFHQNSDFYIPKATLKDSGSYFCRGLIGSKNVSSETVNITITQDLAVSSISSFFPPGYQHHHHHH
# [5] = biological target: T4, Recombinant Cynomolgus Fc gamma RIIB protein (R&D Systems), His-tagged (cynomolgus); test: as above
# T4 construct: also called cynomolgus FcγRIIb; cFcγRIIb
# T4 chain: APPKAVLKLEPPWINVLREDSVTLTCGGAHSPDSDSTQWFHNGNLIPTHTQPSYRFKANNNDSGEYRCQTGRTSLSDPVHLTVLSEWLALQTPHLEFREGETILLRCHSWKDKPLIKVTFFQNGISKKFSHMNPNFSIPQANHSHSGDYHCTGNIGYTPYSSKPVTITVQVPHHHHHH
# [6] = biological target: T5, Recombinant Cynomolgus Fc gamma RIIA/CD32a Protein (R&D Systems), His-tagged (cynomolgus); test: as above
# T5 construct: also called cynomolgus FcγRIIa; cFcγRIIa
# T5 chain: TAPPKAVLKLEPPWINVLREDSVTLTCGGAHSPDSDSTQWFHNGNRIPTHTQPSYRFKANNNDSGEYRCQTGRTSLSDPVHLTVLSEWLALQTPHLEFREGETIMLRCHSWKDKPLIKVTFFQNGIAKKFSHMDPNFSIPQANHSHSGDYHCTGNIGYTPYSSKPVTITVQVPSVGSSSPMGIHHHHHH
# [7] = biological target: T6, Recombinant Human Fc gamma RIIIA/CD16a (V176F) Protein (R&D Systems), His-tagged (human, UniProt P08637 17-208); test: as above
# T6 construct: no further substitution applied; also called human FcγRIIIa (V176F); hFcγRIIIa (V176F)
# [8] = biological target: T7, Recombinant Human Fc gamma RIIIA/CD16a protein (R&D Systems), His-tagged (human, UniProt P08637 17-208); test: as above
# T7 construct: also called human FcγRIIIa; hFcγRIIIa
# [9] = biological target: T8, Recombinant Human Fc gamma RIIB/C (CD32b/c) Protein (R&D Systems), His-tagged (human, UniProt P31994 46-217); test: as above
# T8 construct: also called human FcγRIIb/c; hFcγRIIb/c
# T8 sequence: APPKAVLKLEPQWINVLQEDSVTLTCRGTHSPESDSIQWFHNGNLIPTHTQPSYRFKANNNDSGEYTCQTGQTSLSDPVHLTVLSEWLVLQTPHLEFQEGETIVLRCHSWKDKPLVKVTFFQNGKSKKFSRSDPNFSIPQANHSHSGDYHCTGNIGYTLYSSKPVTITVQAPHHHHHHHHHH
# [10] = biological target: T1, Recombinant Human Fc gamma RIIIB/CD16b …; test: as above
# [11] = biological target: T9, Recombinant Human Fc gamma RIIA/CD32a (H167) Protein (R&D Systems), His-tagged (human, UniProt P12318 34-218); test: as above
# T9 construct: also called human FcγRIIa (H167); hFcγRIIa (H167)
# T9 sequence: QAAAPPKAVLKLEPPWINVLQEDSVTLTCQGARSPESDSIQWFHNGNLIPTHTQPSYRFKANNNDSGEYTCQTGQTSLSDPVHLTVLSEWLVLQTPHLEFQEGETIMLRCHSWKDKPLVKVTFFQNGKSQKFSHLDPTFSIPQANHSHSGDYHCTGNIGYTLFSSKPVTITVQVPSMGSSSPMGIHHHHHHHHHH
# [12] = biological target: T10, Recombinant Cynomolgus Monkey Fc gamma RI/CD64 Protein, CF (R&D Systems), His-tagged (cynomolgus, UniProt P12314 11-288 (human entry)); test: SPR (Biacore T200), RU at 4.7 µM antibody
# T10 construct: also called cynomolgus FcγRI; cFcγRI
# T10 chain: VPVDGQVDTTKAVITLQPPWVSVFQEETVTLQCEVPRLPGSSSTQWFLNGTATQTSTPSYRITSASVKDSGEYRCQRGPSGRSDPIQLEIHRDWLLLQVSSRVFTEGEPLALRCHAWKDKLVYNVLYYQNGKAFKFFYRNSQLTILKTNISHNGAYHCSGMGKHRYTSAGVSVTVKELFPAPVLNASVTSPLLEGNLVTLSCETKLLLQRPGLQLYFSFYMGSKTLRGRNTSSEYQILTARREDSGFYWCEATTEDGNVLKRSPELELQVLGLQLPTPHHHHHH
# [13] = biological target: T10, Recombinant Cynomolgus Monkey Fc gamma …; test: SPR (Biacore T200); His-tagged receptor captured on anti-His antibody chip, antibody as analyte at 4.7 µM
# [14] = biological target: T3, Recombinant Cynomolgus Fc gamma …; test: SPR (Biacore T200); receptor immobilized directly on CM5 chip, antibody as analyte at 4.7 µM
# [15] = biological target: T4, Recombinant Cynomolgus Fc gamma RIIB …; test: as above
# [16] = biological target: T5, Recombinant Cynomolgus Fc gamma …; test: as above
# [17] = biological target: T6, Recombinant Human Fc gamma RIIIA/CD16a …; test: as above; remark: listed apart in the source
# [18] = biological target: T7, Recombinant Human Fc gamma RIIIA/CD16a …; test: as above; remark: listed apart in the source
# [19] = biological target: T8, Recombinant Human Fc gamma RIIB/C …; test: as above; remark: listed apart in the source
# [20] = biological target: T1, Recombinant Human Fc gamma RIIIB/CD16b …; test: as above
# [21] = biological target: T9, Recombinant Human Fc gamma RIIA/CD32a …; test: as above; remark: listed apart in the source
# T7 sequence (P08637 other isoform, or with tags, fused parts or gaps): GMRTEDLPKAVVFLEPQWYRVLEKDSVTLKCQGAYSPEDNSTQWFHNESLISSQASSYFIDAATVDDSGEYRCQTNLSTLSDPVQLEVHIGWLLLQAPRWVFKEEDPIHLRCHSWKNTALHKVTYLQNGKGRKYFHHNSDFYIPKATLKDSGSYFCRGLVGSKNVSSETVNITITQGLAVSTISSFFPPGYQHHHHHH
# T6 sequence (P08637 other isoform, or with tags, fused parts or gaps V176F V176F): as the sequence (P08637 other isoform, or with tags, fused parts or gaps) above, with V160F counted along it
# T2 sequence (P55899 24-297 limits assumed, chain 1 of 2): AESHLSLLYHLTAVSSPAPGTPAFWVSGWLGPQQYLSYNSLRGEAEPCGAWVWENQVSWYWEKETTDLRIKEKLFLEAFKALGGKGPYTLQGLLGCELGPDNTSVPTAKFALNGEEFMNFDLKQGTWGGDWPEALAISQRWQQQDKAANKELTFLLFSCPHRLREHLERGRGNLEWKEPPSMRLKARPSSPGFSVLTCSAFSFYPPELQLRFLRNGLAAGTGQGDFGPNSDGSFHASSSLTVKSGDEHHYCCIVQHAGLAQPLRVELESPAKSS
# T2 sequence (P61769 21-119 limits assumed, chain 2 of 2): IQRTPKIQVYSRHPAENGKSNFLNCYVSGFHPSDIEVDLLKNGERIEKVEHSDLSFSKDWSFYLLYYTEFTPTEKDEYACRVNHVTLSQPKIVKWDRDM
Binder,binding response (RU) [4],binding response (RU) [5],binding response (RU) [6],binding response (RU) [7],binding response (RU) [8],binding response (RU) [9],binding response (RU) [10],binding response (RU) [11],RU value relative to the LALA-DA variant [12],also measured
B1,,,,,,,,,,binding response (RU) [1]: -1.4 RU
B2,,,,,,,,,,Kd [2]: 5 nM; koff [3]: 2.3 s⁻¹
B3,4.8 RU,93 RU,24 RU,-3.6 RU,-1.4 RU,15 RU,-0.2 RU,37 RU,≥ 1.4 fold,
B4,3.5 RU,89 RU,22 RU,-3.5 RU,-2.1 RU,15 RU,-0.6 RU,34 RU,≥ 1.4 fold,
B5,,,,,,,,,,binding response (RU) [13]: 1300 RU; binding response (RU) [14]: 10 RU; binding response (RU) [15]: 110 RU; binding response (RU) [16]: 23 RU; binding response (RU) [17]: -0.8 RU; binding response (RU) [18]: -0.7 RU; binding response (RU) [19]: 19 RU; binding response (RU) [20]: -0.4 RU; binding response (RU) [21]: 19 RU
B6,3.1 RU,85 RU,19 RU,-5 RU,-3.3 RU,14 RU,-1 RU,21 RU,,
